Assay [1] deals with hTNF-R2 on Raji cells or PC60-hTNFR2 cells (human) (UniProt P20333). Kind of assay: cell-based or functional assay.
Assay [2] addresses T1, soluble hTNF-R1 (Peprotech) (human, UniProt P19438 30-211).
T1 construct: extracellular domain; also called p55
T1 sequence (looked up): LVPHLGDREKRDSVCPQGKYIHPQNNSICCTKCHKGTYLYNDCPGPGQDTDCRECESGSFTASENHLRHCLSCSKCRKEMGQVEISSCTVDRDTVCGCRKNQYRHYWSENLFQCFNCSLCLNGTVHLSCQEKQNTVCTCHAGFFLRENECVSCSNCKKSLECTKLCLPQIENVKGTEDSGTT
Kind of assay: BLI (Octet RED96), His-tagged TNF on HIS1K biosensor, soluble receptor in solution, 1:1 global fit. The method, then:
(§1) KD values were calculated using global fitting with a 1:1 model (R²≥0.95).

Assay [3] has as its target T2, soluble hTNF-R2 (Peprotech) (human, UniProt P20333 23-257).
T2 construct: extracellular domain; also called p75
T2 sequence (looked up): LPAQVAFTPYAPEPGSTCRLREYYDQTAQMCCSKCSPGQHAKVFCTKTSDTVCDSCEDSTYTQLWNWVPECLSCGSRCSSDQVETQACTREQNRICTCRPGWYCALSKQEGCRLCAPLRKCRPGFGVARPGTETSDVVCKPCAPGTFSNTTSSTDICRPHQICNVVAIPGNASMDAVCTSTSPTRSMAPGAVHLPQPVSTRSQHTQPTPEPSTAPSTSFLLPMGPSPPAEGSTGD
Described as above. The method, then: as §1

The target in assay [4] is T1, soluble hTNF-R1 (Peprotech). Kind of assay: BLI (Octet RED96), affinity relative to WT hTNF. The method, then:
as §1

Molecule “BclI10 Nanobody (control) - 20xGGS - hTNF Y87H/A145R - 6xHis AcTakine” had an OPRM1 mRNA expression in Raji cells (qPCR), against unstimulated cells in assay [1] of 5 fold.

B1: hTNF mutant A145T E146D S147D (N-terminal 6xHis tag) (ligand)
chain: HHHHHHVRSSSRTPSDKPVAHVVANPQAEGQLQWLNRRANALLANGVELRDNQLVVPSEGLYLIYSQVLFKGQGCPSTHVLLTHTISRIAVSYQTKVNLLSAIKSPCQRETPEGAEAKPWYEPIYLGGVFQLEKGDRLSAEINRPDYLDFTDDGQVYFGIIAL
Regarding B1, the equilibrium dissociation constant (Kd) was determined as 5100 nM in assay [2] and 4.78 nM in assay [3]. Further, the “% WT R1” value in assay [4] was determined as 0.35%.

The values above are taken from US20230287131A1 (ORIONIS BIOSCIENCES, published 2023).
